According to PMC8904041, “High-Level Production of Isoleucine and Fusel Alcohol by Expression of the Feedback Inhibition-Insensitive Threonine Deaminase in Saccharomyces cerevisiae” (Applied and Environmental Microbiology, 2022):
Numbering of substitutions follows the chain as printed. In names and notes the source's numbering stands. Each block holds one molecule with its values, some of them ahead of it.

Tests used:
[1] = target: T1, threonine deaminase (Ilv1), wild-type (Saccharomyces cerevisiae, UniProt P00927); assay: biochemical; details: read-out: GDH-coupled TD activity assay with purified Ilv1; 1.8-fold activation at 5 mM Va
T1 sequence (P00927 46-576): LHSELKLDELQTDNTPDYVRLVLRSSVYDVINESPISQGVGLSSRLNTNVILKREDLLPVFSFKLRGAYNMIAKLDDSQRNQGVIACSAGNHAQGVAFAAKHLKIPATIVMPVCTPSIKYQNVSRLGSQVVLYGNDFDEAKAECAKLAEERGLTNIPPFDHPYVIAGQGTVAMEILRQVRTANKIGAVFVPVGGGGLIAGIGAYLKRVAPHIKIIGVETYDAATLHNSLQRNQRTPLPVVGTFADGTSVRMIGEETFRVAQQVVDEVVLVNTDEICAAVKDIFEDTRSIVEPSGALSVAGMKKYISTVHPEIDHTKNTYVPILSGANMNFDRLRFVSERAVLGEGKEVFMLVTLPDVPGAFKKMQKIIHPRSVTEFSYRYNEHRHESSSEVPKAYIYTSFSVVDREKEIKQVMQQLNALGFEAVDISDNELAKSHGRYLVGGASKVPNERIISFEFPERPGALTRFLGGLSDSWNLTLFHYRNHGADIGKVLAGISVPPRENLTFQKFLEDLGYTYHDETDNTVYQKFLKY

[2] = target: T1, threonine deaminase (Ilv1), wild-type; assay: GDH-coupled NADH oxidation assay of TD activity with purified recombinant Ilv1; type: biochemical
purified protein = substrate: C[C@@H](O)[C@H](N)C(=O)O; assay: purified protein; type: biochemical, Saccharomyces cerevisiae; details: pyridoxal-5'-phosphate

B1: threonine deaminase (Ilv1), wild-type (Saccharomyces cerevisiae S288C) (protein)
chain: T1 sequence (P00927 46-576)
notes: recombinant Ilv1 lacking the N-terminal 45 amino acid residues (mitochondrial localization signal), expressed in E. coli BL21(DE3)
K0.5 (purified protein): 40 ± 2.2 mM
kcat (purified protein): 75 ± 4.1 s⁻¹
kcat/Km (purified protein): 1870 M⁻¹ s⁻¹

B2: threonine deaminase (Ilv1), H480Y variant (Saccharomyces cerevisiae S288C; H480Y) (protein)
chain: T1 sequence (P00927 46-576) with H435Y
notes: as for B1
K0.5 (purified protein): 42 ± 2.4 mM
kcat (purified protein): 75 ± 3.6 s⁻¹
kcat/Km (purified protein): 1780 M⁻¹ s⁻¹

Second part, the molecule after the results:

fold induction at 5000 µM [1]: 1.8
Molecule: CC(C)[C@H](N)C(=O)O [valine]

IC50 [2]: 270 ± 9 µM
Molecule: CC[C@H](C)[C@H](N)C(=O)O [isoleucine]
